According to patent US20220096608:

T1: α2-antiplasmin, P08697
T1 chain: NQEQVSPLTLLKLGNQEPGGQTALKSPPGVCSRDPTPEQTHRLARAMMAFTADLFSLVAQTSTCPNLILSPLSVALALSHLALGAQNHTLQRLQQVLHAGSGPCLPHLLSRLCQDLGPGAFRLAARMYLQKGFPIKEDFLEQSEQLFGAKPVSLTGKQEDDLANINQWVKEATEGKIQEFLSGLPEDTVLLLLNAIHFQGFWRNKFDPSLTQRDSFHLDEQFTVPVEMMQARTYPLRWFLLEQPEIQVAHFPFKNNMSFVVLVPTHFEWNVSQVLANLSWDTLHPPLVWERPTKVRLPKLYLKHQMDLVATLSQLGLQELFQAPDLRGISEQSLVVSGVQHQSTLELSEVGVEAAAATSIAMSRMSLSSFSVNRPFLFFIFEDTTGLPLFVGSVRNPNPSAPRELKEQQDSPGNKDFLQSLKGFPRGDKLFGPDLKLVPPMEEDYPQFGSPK


Target: T1, α2-antiplasmin, P08697

| Protein | In vitro Half-life (of inactivation by α2-antiplasmin) [min] |
| --- | --- |
| Mono-PEGylated Micro-plasmin variant (40 kDa PEG) V82C Catalytic Domain (SEQ ID NO. 4) (protein) APSFDCGKPQVEPKKCPGRVVGGCVAHPHSWPWQVSLRTRFGMHFCGGTLISPEWVLTAAHCLEKSPRPSSYKVILGAHQECNLEPHVQEIEVSRLFLEPTRKDIALLKLSSPAVITDKVIPACLPSPNYVVADRTECFITGWGETQGTFGAGLLKEAQLPVIENKVCNRYEFLNGRVQSTELCAGHLAGGTDSCQGDSGGPLVCFEKDKYILQGVTSWGLGCARPNKPGVYVRVSRFVTWIEGVMRNN | >7 |
| Bi-PEGylated Micro-plasmin variant (20 kDa-20 kDa PEG) V82C-H87C Catalytic Domain (SEQ ID NO. 12) (protein) APSFDCGKPQVEPKKCPGRVVGGCVAHPHSWPWQVSLRTRFGMHFCGGTLISPEWVLTAAHCLEKSPRPSSYKVILGAHQECNLEPCVQEIEVSRLFLEPTRKDIALLKLSSPAVITDKVIPACLPSPNYVVADRTECFITGWGETQGTFGAGLLKEAQLPVIENKVCNRYEFLNGRVQSTELCAGHLAGGTDSCQGDSGGPLVCFEKDKYILQGVTSWGLGCARPNKPGVYVRVSRFVTWIEGVMRNN | >10 |
| Mono-PEGylated Micro-plasmin variant (40 kDa PEG) H87C Catalytic Domain (SEQ ID NO. 9) (protein) APSFDCGKPQVEPKKCPGRVVGGCVAHPHSWPWQVSLRTRFGMHFCGGTLISPEWVLTAAHCLEKSPRPSSYKVILGAHQEVNLEPCVQEIEVSRLFLEPTRKDIALLKLSSPAVITDKVIPACLPSPNYVVADRTECFITGWGETQGTFGAGLLKEAQLPVIENKVCNRYEFLNGRVQSTELCAGHLAGGTDSCQGDSGGPLVCFEKDKYILQGVTSWGLGCARPNKPGVYVRVSRFVTWIEGVMRNN | >7 |
| Wild-type Micro-plasmin (SEQ ID NO. 2) (protein) APSFDCGKPQVEPKKCPGRVVGGCVAHPHSWPWQVSLRTRFGMHFCGGTLISPEWVLTAAHCLEKSPRPSSYKVILGAHQEVNLEPHVQEIEVSRLFLEPTRKDIALLKLSSPAVITDKVIPACLPSPNYVVADRTECFITGWGETQGTFGAGLLKEAQLPVIENKVCNRYEFLNGRVQSTELCAGHLAGGTDSCQGDSGGPLVCFEKDKYILQGVTSWGLGCARPNKPGVYVRVSRFVTWIEGVMRNN | >5 |
| Mono-PEGylated Micro-plasmin variant (20 kDa PEG) V82C Catalytic Domain (SEQ ID NO. 4) (protein) APSFDCGKPQVEPKKCPGRVVGGCVAHPHSWPWQVSLRTRFGMHFCGGTLISPEWVLTAAHCLEKSPRPSSYKVILGAHQECNLEPHVQEIEVSRLFLEPTRKDIALLKLSSPAVITDKVIPACLPSPNYVVADRTECFITGWGETQGTFGAGLLKEAQLPVIENKVCNRYEFLNGRVQSTELCAGHLAGGTDSCQGDSGGPLVCFEKDKYILQGVTSWGLGCARPNKPGVYVRVSRFVTWIEGVMRNN | 6 to 7 |
| Mono-PEGylated Micro-plasmin variant (20 kDa PEG) H87C Catalytic Domain (SEQ ID NO. 9) (protein) APSFDCGKPQVEPKKCPGRVVGGCVAHPHSWPWQVSLRTRFGMHFCGGTLISPEWVLTAAHCLEKSPRPSSYKVILGAHQEVNLEPCVQEIEVSRLFLEPTRKDIALLKLSSPAVITDKVIPACLPSPNYVVADRTECFITGWGETQGTFGAGLLKEAQLPVIENKVCNRYEFLNGRVQSTELCAGHLAGGTDSCQGDSGGPLVCFEKDKYILQGVTSWGLGCARPNKPGVYVRVSRFVTWIEGVMRNN | 6 to 7 |
